Assay results: patent publication US20210332142A1 (Genentech, published 2021)
Read-outs that look alike come from different tables or passages of the source.

T1: recombinant cyno Tie2 extracellular domain (cynomolgus monkey, UniProt Q02763 23-748 (human entry))
T1 construct: also called Recombinant cyno Tie2 ECD; cy Tie2
T1 chain: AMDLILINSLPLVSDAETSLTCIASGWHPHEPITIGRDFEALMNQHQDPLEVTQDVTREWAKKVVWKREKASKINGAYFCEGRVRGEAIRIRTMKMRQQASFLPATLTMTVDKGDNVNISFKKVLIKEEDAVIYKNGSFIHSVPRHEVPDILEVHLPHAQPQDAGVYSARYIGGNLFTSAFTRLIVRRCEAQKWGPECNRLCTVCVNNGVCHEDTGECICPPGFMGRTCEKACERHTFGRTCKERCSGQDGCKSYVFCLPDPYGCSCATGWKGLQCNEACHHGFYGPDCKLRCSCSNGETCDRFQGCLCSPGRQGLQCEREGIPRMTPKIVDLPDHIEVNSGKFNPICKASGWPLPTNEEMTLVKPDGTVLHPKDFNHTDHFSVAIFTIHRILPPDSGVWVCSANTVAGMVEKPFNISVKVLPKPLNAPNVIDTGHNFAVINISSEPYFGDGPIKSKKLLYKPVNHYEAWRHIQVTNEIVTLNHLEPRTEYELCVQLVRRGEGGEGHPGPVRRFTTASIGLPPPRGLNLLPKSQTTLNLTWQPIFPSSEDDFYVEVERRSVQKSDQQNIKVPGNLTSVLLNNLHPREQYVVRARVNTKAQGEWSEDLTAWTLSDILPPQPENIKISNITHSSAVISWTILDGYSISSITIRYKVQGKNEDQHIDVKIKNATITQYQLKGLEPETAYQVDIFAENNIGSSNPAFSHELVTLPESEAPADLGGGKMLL


Legend:
Assay in all cases: SPR, IgG captured, 37C
[1] = molecular target: T1, recombinant cyno Tie2 extracellular …
Description: (§1) A human antibody capture chip was prepared using a Series S CM5 chip (GE Life Sciences), a human antibody capture kit (GE Life Sciences) and an amine coupling kit (GE Life Sciences). Antibodies diluted to 5 μg/ml in running buffer (10 mM HEPES, 150 mM NaCl, 0.05% Tween 20, 1 mM EDTA, pH 7.4) were non-covalently captured using a contact time of 20 seconds and a flow rate of 10 μl/minute. Binding to 300 nM and 1500 nM recombinant Tie2 was analyzed at 37° C. using a Single Cycle Kinetics method with a contact time of 60 seconds, a dissociation time of 120 seconds and a flow rate of 50 μl/min. Between cycles, the surface was regenerated by a 30 second injection of 3M MgCl₂ at a flow rate of 30 μl/min. Values for antibody capture levels and analyte binding levels were obtained from the Report Point Table (Biacore Evaluation Software v3.0, GE Life Sciences). […] Table 16: Experiment A; Table 17: Experiment B.

[2] = molecular target: T2, recombinant human Tie2 extracellular domain (human, UniProt Q02763 23-748)
T2 construct: whole entry named; also called Recombinant human Tie2 ECD; hu Tie2
Description: as §1

[3] = molecular target: T1, recombinant cyno Tie2 extracellular …
Description: as §1

[4] = molecular target: T2, recombinant human Tie2 extracellular …; remark: listed apart in the source
Description: as §1

T2 sequence (Q02763 23-748 limits assumed): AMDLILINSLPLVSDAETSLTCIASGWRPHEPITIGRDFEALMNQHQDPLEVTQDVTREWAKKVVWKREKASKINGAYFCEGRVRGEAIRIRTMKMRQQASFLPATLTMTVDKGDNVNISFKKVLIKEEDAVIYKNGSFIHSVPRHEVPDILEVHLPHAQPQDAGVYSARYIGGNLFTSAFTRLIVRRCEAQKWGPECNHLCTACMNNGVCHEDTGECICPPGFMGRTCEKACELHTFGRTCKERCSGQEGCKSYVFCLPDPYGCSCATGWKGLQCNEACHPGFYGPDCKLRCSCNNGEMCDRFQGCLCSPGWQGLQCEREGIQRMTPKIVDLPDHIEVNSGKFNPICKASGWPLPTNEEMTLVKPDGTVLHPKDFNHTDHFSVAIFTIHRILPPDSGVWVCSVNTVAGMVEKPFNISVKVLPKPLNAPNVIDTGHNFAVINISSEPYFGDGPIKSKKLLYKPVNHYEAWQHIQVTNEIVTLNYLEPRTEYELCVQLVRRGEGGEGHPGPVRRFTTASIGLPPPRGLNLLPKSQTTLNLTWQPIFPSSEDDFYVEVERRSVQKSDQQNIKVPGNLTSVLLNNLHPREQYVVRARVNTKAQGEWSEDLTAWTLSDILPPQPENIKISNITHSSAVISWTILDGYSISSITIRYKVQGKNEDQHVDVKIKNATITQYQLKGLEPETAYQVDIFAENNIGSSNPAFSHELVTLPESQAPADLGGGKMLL

Binder | Normalized Binding Signal, 300 nM [1] | Normalized Binding Signal, 1500 nM [1] | Normalized Binding Signal, 300 nM [2] | Normalized Binding Signal, 1500 nM [2] | Normalized Binding Signal, 300 nM [3] | Normalized Binding Signal, 1500 nM [3] | Normalized Binding Signal, 300 nM [4] | Normalized Binding Signal, 1500 nM [4]
Tie2.1.M100cI (antibody, IgG1, name in Kabat numbering, V domains shown, hIgG1) VH: EVQLVESGGGLVQPGGSLRLSCAASGFTFSNTDISWVRQAPGKGLEWVGRISPSDGNTYYADSVKGRFTISADTSKNTAYLQMNSLRAEDTAVYYCARRTRWASWAIDYWGQGTLVTVSS VL: DIQMTQSPSSLSASVGDRVTITCRASQDVSTAVAWYQQKPGKAPKLLIYSASFLYSGVPSRFSGSGSGTDFTLTISSLQPEDFATYYCQQSYTTPPTFGQGTKVEIKR | 0.03 | 0.12 | 0.04 | 0.14 | 0.03 | 0.13 | 0.03 | 0.14
Tie2.1.M100cR (antibody, IgG1, name in Kabat numbering, V domains shown, hIgG1) VH: EVQLVESGGGLVQPGGSLRLSCAASGFTFSNTDISWVRQAPGKGLEWVGRISPSDGNTYYADSVKGRFTISADTSKNTAYLQMNSLRAEDTAVYYCARRTRWASWARDYWGQGTLVTVSS VL: DIQMTQSPSSLSASVGDRVTITCRASQDVSTAVAWYQQKPGKAPKLLIYSASFLYSGVPSRFSGSGSGTDFTLTISSLQPEDFATYYCQQSYTTPPTFGQGTKVEIKR |  |  |  |  | 0.05 | 0.2 | 0.06 | 0.22
Tie2.1.M100cV (antibody, IgG1, name in Kabat numbering, V domains shown, hIgG1) VH: EVQLVESGGGLVQPGGSLRLSCAASGFTFSNTDISWVRQAPGKGLEWVGRISPSDGNTYYADSVKGRFTISADTSKNTAYLQMNSLRAEDTAVYYCARRTRWASWAVDYWGQGTLVTVSS VL: DIQMTQSPSSLSASVGDRVTITCRASQDVSTAVAWYQQKPGKAPKLLIYSASFLYSGVPSRFSGSGSGTDFTLTISSLQPEDFATYYCQQSYTTPPTFGQGTKVEIKR |  |  |  |  | 0.04 | 0.15 | 0.04 | 0.16
Tie2.1.M100cL (antibody, IgG1, name in Kabat numbering, V domains shown, hIgG1) VH: EVQLVESGGGLVQPGGSLRLSCAASGFTFSNTDISWVRQAPGKGLEWVGRISPSDGNTYYADSVKGRFTISADTSKNTAYLQMNSLRAEDTAVYYCARRTRWASWALDYWGQGTLVTVSS VL: DIQMTQSPSSLSASVGDRVTITCRASQDVSTAVAWYQQKPGKAPKLLIYSASFLYSGVPSRFSGSGSGTDFTLTISSLQPEDFATYYCQQSYTTPPTFGQGTKVEIKR | 0.11 | 0.4 | 0.13 | 0.42 | 0.1 | 0.39 | 0.12 | 0.41
Tie2.1.M100cW (antibody, IgG1, name in Kabat numbering, V domains shown, hIgG1) VH: EVQLVESGGGLVQPGGSLRLSCAASGFTFSNTDISWVRQAPGKGLEWVGRISPSDGNTYYADSVKGRFTISADTSKNTAYLQMNSLRAEDTAVYYCARRTRWASWAWDYWGQGTLVTVSS VL: DIQMTQSPSSLSASVGDRVTITCRASQDVSTAVAWYQQKPGKAPKLLIYSASFLYSGVPSRFSGSGSGTDFTLTISSLQPEDFATYYCQQSYTTPPTFGQGTKVEIKR |  |  |  |  | 0.07 | 0.29 | 0.08 | 0.31
Tie2.1.M100cT (antibody, IgG1, name in Kabat numbering, V domains shown, hIgG1) VH: EVQLVESGGGLVQPGGSLRLSCAASGFTFSNTDISWVRQAPGKGLEWVGRISPSDGNTYYADSVKGRFTISADTSKNTAYLQMNSLRAEDTAVYYCARRTRWASWATDYWGQGTLVTVSS VL: DIQMTQSPSSLSASVGDRVTITCRASQDVSTAVAWYQQKPGKAPKLLIYSASFLYSGVPSRFSGSGSGTDFTLTISSLQPEDFATYYCQQSYTTPPTFGQGTKVEIKR |  |  |  |  | 0.02 | 0.09 | 0.02 | 0.1
